3 molecules from patent US20240270817A1 (PETMEDIX, published 2024) can be followed below.

Where two headings read alike, the source gives them in different places.

Assay [1] deals with NGF (species not stated) (Homo sapiens (Human)) (UniProt P01138). Put plainly: SPR, Biacore 8K; captured on Protein A chip, NGF in solution (the table does not say human or rat).
For assay [2] the target is unchanged. In words: cell-based or functional assay.
Assay [3] deals with T1, human Nerve Growth Factor (human, UniProt P01138 122-241).
T1 construct: Bought protein; also called hNGF; human NGF
T1 sequence (P01138 122-241 limits assumed): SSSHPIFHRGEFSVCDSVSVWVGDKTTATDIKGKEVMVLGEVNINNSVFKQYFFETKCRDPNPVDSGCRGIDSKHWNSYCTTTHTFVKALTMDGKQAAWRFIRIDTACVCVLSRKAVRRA
In words: SPR, Biacore 8K; captured on Protein A chip, hNGF in solution, multi-cycle kinetics. In general terms: Surface plasmon resonance follows binding to a sensor surface in real time, without labels.

The target in assay [4] is NGF (species not stated) (Homo sapiens (Human)) (UniProt P01138). Put plainly: cell-based or functional assay. This is another data set of the same source.
Assay [5] has as its target T1, human Nerve Growth Factor. Put plainly: cell-based or functional assay.

Broadly, the Kd is the concentration at which binding is half-saturated. “PetML319 (Human p75NTR ECD no stalk IgG1) (Fc fusion)” gave a Kd in assay [1] of 0.358 nM. In assay [2], this molecule gave a Bottom (%), best-fit values, PathHunter TrkA activation assay of 9.5% and an IC50 (nM), PathHunter TrkA activation assay of 8.04 nM.
As for “PetML308 (Human p75NTR ECD full stalk IgG1) (Fc fusion)”, in assay [1], the Kd was 8.78 nM. In assay [2], this molecule gave a Bottom (%), best-fit values, PathHunter TrkA activation assay of 44.5%; an IC50 (nM), PathHunter TrkA activation assay of 282 nM; a Top (%), best-fit values, PathHunter TrkA activation assay of 105%.

B1: Bedinvetmab (antibody, V domains shown)
VH: EVQLVESGGDLVKPGGSLRLSCVASGFTFSSHGMHWVRQSPGKGLQWVAVINSGGSSTYYTDAVKGRFTISRDNAKNTVYLQMNSLRAEDTAMYYCAKESVGGWEQLVGPHFDYWGQGTLVIVSS
VL: QSVLTQPTSVSGSLGQRVTISCSGSTNNIGILGASWYQLFPGKAPKLLVYGNGNRPSGVPDRFSGADSGDSVTLTITGLQAEDEADYYCQSFDTTLGAHVFGGGTHLTVL
In assay [1], B1 registered a Kd of 0.0073 nM. Besides, in assay [3], the Kd was found to be 0.0073 nM. In assay [4], this molecule came in with a Bottom (%), best-fit, PathHunter TrkA activation assay of 5.35%; an IC50 (nM), PathHunter TrkA activation assay of 4.24 nM; a Top (%), best-fit, PathHunter TrkA activation assay of 123%; a maximal TrkA inhibition, PathHunter TrkA activation assay of 100%. In assay [2], this molecule yielded a Bottom (%), best-fit values, PathHunter TrkA activation assay of 2.11%; an IC50 (nM), PathHunter TrkA activation assay of 1.14 nM; a Top (%), best-fit values, PathHunter TrkA activation assay of 93.5%. Moreover, in assay [5], the “IC50 (nM), TF-1 cell proliferation inhibition” value turned out to be 0.89 nM and the “ICMAX (%), TF-1 cell proliferation inhibition” value was found to be 96.8%.
